Results: patent publication US20220298212A1 (Molecular Partners, published 2022)
Where a chain is given by its changes, count along the chain named.

B1: DARPin® protein #27 (designed binder)
chain: MRGSHHHHHHGSDLGKKLLEAARAGQDDEVRELLKAGADVNAKDHQGATPLHNAAWAGHLEIVEVLLKAGADVNAKDKAGYTPLHIAAITGHLEIVEVLLKAGADVNAKDQWGKTPLHLAAQVGHLEIVEVLLKAGADVNAQDKSGKTPADLAADAGHEDIAKVLQKLN
B2: DARPin® protein #51 (designed binder)
chain: GSDLGQKLLKAAQEGQDDEVRELLKAGADVNAKDLRGITPLHVAAWQGHLEIVEVLLKAGADVNAKDSKGETPLHLAAFRGHLEIVEVLLKAGADVNAQDQQGETPADLAALAGHVDIAEVLQKLNGSPTPTPTTPTPTPTTPTPTPTGSDLGQKLLKAAQEGQDDEVRELLKAGADVNAKDLRGITPLHVAAWQGHLEIVEVLLKAGADVNAKDSKGETPLHLAAFRGHLEIVEVLLKAGADVNAQDQQGETPADLAALAGHVDIAEVLQKLN
notes: not shown: TAA-specific ankyrin repeat domain (localizer)
B3: DARPin® protein #24 (designed binder)
chain: MRGSHHHHHHGSDLGEKLLNAAYYGQDDEVRILLAAGADVNAKDVKGETPLHYAAAVGHLEIVEVLLKAGADVNAKDQYGATPLHLAAYKGHLEIVEVLLKAGADVNAQDKSGKTPADLAADAGHEDIAEVLQKAA
B4: DARPin® protein #52 (designed binder)
chain: GSDLGDKLLHAAYYGQDDEVRILLAAGADVNAKDTQGLTPLHLAAAIGHLEIVEVLLKAGADVNAKDAYGETPLHLVASRGHLEIVEVLLKAGADVNAQDYSGRTPADLAAEYGHEDIAEVLQKLNGSPTPTPTTPTPTPTTPTPTPTGSDLGDKLLHAAYYGQDDEVRILLAAGADVNAKDTQGLTPLHLAAAIGHLEIVEVLLKAGADVNAKDAYGETPLHLVASRGHLEIVEVLLKAGADVNAQDYSGRTPADLAAEYGHEDIAEVLQKLN
notes: as for B2
B5: DARPin® protein #22 (designed binder)
chain: MRGSHHHHHHGSDLGEKLLWAAWEGQGDEVRILLAAGADVNAKDLTGRTPLHFAAHSGHLEIVEVLLKAGADVNAKDNAGRTPLHLAAELGHLEIVEVLLKAGADVNAQDKSGKTPADLAADAGHEDIAEVLQKAA
B6: DARPin® protein #23 (designed binder)
chain: B5 chain with W23Y, E24L, G27D, L45A
B7: DARPin® protein #26 (designed binder)
chain: MRGSHHHHHHGSDLGKKLLEAARAGQDDEVRELLKAGADVNAKDHAGQTPLHIAALRGHLEIVEVLLKAGADVNAKDKYGQTPLHLAAILGHLEIVEVLLKAGADVNAKDQEGDTPLHIAAWQGHLEIVEVLLKAGADVNAQDKSGKTPADLAADAGHEDITEVLQKLN
B8: DARPin® protein #55 (designed binder)
chain: GSDLGDKLLHAAYYGQDDEVRILLAAGADVNAKDTQGLTPLHLAAAIGHLEIVEVLLKAGADVNAKDAYGETPLHLVASRGHLEIVEVLLKAGADVNAQDYSGRTPADLAAEYGHEDIAEVLQKLNGSPTPTPTTPTPTPTTPTPTPTGSDLGDKLLHAAYYGQDDEVRILLAAGADVNAKDTQGLTPLHLAAAIGHLEIVEVLLKAGADVNAKDAYGETPLHLVASRGHLEIVEVLLKAGADVNAQDYSGRTPADLAAEYGHEDIAEVLQKLNGSPTPTPTTPTPTPTTPTPTPTGSDLGDKLLHAAYYGQDDEVRILLAAGADVNAKDTQGLTPLHLAAAIGHLEIVEVLLKAGADVNAKDAYGETPLHLVASRGHLEIVEVLLKAGADVNAQDYSGRTPADLAAEYGHEDIAEVLQKLN
notes: as for B2

Legend:
[1] = molecular target: T1, biotinylated human 4-1BB (recombinant Fc fusion protein of the extracellular domain of human 4-1BB) (human, UniProt Q07011 24-186, biotinylated (site not stated)); experiment: SPR (ProteOn), biotinylated human 4-1BB on NLC chip, PBST
T1 construct: Bought from BPS Bioscience; tie to the Fc fusion is by the Materials paragraph; also called h4-1BB; CD137; not shown: Fc part of the purchased fusion (BPS Bioscience)
Experimental: Briefly, biotinylated human 4-1 BB was diluted in PBST (PBS, pH 7.4 containing 0.005% Tween 20®) and coated on a NLC chip (BioRad) to a level of around 320 resonance units (RU) (600 RU for single trace SPR measurements). The interaction of ankyrin repeat protein and h4-1 BB was then measured by injecting 200 μl running buffer (PBS, pH 7.4 containing 0.005% Tween 20®) containing serial dilutions of ankyrin repeat proteins covering a concentration range between 50 nM and 0.5 nM for multi-trace SPR measurements or 50 nM for single trace measurements (on-rate measurement), followed by a running buffer flow for at least 30 minutes at a constant flow rate of 100 μl/min (off-rate measurement). The regeneration was performed using 30 μl of 10 mM Glycine pH 2 followed by 30 μl of 124 mM H₃PO₄. The signals (i.e. resonance unit (RU) values) of the interspots and a reference injection (i.e. injection of running buffer only) were subtracted from the RU traces obtained after injection of ankyrin repeat protein (double-referencing). Based on the SPR traces obtained from the on-rate and off-rate measurements, the on- and off-rate of the corresponding ankyrin repeat protein—4-1 BB interaction was determined.
Dissociation constants (KD) were calculated from the estimated on- and off-rates using standard procedures known to the person skilled in the art.

[2] = molecular target: T1, biotinylated human 4-1BB (recombinant …); experiment: SPR; accurate fit not possible due to slow off-rate
[3] = molecular target: T2, cell membrane-bound human 4-1BB (endogenous, on ionomycin/PMA stimulated CCRF-CEM cells or primary CD8+ T … (human, UniProt Q07011 24-255)); experiment: flow cytometry on PMA/ionomycin stimulated CEM cells, anti-penta-His Alexa Fluor-488 detection
T2 construct: also called cell membrane-expressed human 4-1 BB; 4-1BB on CEM cells
T2 sequence (Q07011 24-255 limits assumed): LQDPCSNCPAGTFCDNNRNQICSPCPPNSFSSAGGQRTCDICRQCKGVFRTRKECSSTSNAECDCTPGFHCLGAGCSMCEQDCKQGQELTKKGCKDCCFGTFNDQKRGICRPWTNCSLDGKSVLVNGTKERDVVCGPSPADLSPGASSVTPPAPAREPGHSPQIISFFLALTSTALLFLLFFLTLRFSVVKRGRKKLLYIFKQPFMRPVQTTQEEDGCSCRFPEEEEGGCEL
Experimental: Assay setup: Ankyrin repeat protein binding to cell membrane-bound human 4-1 BB on cells was measured by flow cytometry using the T lymphoblast cell line CCRF-CEM (ATCC® CCL-119™) stimulated with ionomcycin/PMA (phorbol 12-myristate 13-acetate) to express 4-1 BB. CEM cells cultured in RPMI medium supplemented with 10% (v/v) FBS+1% PenStrep were harvested and stimulated overnight in 96-well U-bottom plates using the same medium plus PMA (10 ng/ml) and ionomycin (500 ng/ml). […] Stimulated CEM cells were harvested, then 30,000 cells were incubated with increasing concentrations of His-tagged ankyrin repeat proteins in FACS buffer (PBS+2% (v/v) FBS+0.1% sodium azide) for 30 minutes on ice. […] After washing with PBS, cells were stained with Live/Dead Aqua dye (Thermo Fisher, No. L34957) and analyzed using a BD FACS Canto II or AttuneNxT cytometer.
The multivalent ankyrin repeat proteins were tested, together with binding proteins comprising only one corresponding 4-1 BB-specific ankyrin repeat domain (with our without a linked localizer), for binding to PMA/ionomycin stimulated CEM cells.

Binder | Kd [1] | other results
B1 | 3.96 nM | 
B2 |  | Kd [2]: < 0.02 nM
B3 | 0.29 nM | 
B4 |  | EC50 (read off the curve) [3]: ~8 nM
B5 | 0.13 nM | 
B6 | 0.6 nM | 
B7 | 0.83 nM | 
B8 |  | EC50 (read off the curve) [3]: ~7 nM
